Columns and labels:
[1] = biological target: human SIRPα expressed on the surface of human monocyte-derived dendritic cells (human) (UniProt P78324); test: flow cytometry on human monocyte-derived dendritic cells
[2] = biological target: human SIRPα expressed on the surface of human monocyte-derived dendritic cells (human) (UniProt P78324); test: flow cytometry, mDC surface binding, donor/experiment 1
[3] = biological target: human SIRPα expressed on the surface of human monocyte-derived dendritic cells (human) (UniProt P78324); test: flow cytometry, mDC surface binding, donor/experiment 2
[4] = biological target: human SIRPα expressed on the surface of human monocyte-derived dendritic cells (human) (UniProt P78324); test: flow cytometry, mDC surface binding, donor/experiment 3
[5] = biological target: human SIRPα expressed on the surface of human monocyte-derived dendritic cells (human) (UniProt P78324); test: flow cytometry, mDC surface binding, donor/experiment 4

Chain of human SIRPα expressed on the surface of human monocyte-derived dendritic cells (human) (P78324 31-504): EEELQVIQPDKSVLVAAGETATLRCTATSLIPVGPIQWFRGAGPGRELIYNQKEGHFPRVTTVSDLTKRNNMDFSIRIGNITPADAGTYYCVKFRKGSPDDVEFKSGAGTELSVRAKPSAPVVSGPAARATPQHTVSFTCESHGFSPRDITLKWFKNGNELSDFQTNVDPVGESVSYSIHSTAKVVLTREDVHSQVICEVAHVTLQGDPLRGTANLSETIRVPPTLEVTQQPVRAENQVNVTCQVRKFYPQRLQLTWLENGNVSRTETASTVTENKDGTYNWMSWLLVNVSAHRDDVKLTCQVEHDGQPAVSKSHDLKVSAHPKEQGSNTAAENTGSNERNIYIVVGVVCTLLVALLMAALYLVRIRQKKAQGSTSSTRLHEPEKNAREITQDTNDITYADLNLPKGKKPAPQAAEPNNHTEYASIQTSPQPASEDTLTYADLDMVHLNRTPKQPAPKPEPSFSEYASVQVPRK

Row | Kd [1] | Kd [2] | Kd [3] | Kd [4] | Kd [5] | Binder
1 | 1.66 nM | – | – | – | – | 8H- IgG4 S228P (antibody, V domains shown) VH: EVQLVESGGGLVQPGGSLRLSCAASGFSFSSSDYMCWVRQAPGKGLEWVGCINSGSDTTSYATWAKGRFTISRDNAKNTLYLQMNSLRAEDTAVYYCARGYGSAGANGYVIGMKYLNLWGQGTLVTVSS VL: DIQMTQSPSSLSASVGDRVTITCQASQSIGSNLAWYQQKPGKAPKLLIYTASTLESGVPSRFSGSGSGTDFTLTISSLQPEDFATYYCQCTYGSSSSGYPFGGGTKVEIK
2 | 0.0881 nM | – | – | – | – | 4H- IgG4 S228P (antibody, V domains shown) VH: EVQLVESGGGLVQPGGSLRLSCAASGFSFSSYYFMCWVRQAPGKGLEWVACIDAGYSGGSHYASWAKGRFTISRDNSKNTLYLQMNSLRAEDTAVYYCARAYEYGYGGYDLWGQGTLVTVSS VL: DIQMTQSPSSLSASVGDRVTITCQASQSIDSNLAWYQQKPGKAPKLLIYRASGLESGVPSRFSGSGSGTDFTLTISSLQPEDFATYYCQCTYGSNDSGNYANAFGGGTKVEIK
3 | 0.378 nM | 1.04 nM | 0.923 nM | 0.881 nM | 0.908 nM | 89H-IgG4 S228P (antibody, V domains shown) VH: EVQLVESGGGLVQPGGSLRLSCAASGFSLSTYAMIWVRQAPGKGLEWVGIISPSGTTYYATWAKGRFTISRDNSKNTLYLQMNSLRAEDTAVYYCARAGSGGWDYFNIWGQGTLVTVSS VL: DIQMTQSPSSLSASVGDRVTITCQASQSISSYLSWYQQKPGKAPKLLIYYASNLASGVPSRFSGSGSGTDFTLTISSLQPEDFATYYCQSYYYSNNYNWAFGGGTKVEIK
4 | 0.686 nM | 1.48 nM | 0.953 nM | 0.99 nM | 1.33 nM | 14H2B-IgG4 S228P (antibody, V domains shown) VH: EVQLVESGGGLVQPGGSLRLSCAASGIDLSSYSMIWVRQAPGKGLEWIGIIYTGGSTDYASWAKGRFTISRDNSKNTLYLQMNSLRAEDTAVYYCARENSHDTFDPWGQGTLVTVSS VL: DIQMTQSPSSLSASVGDRVTITCQSSQSVYTNYQSWYQQKPGKAPKLLIYAASTLASGVPSRFSGSGSGTDFTLTISSLQPEDFATYYCLGSYVSSGWYYAFGGGTKVEIK
5 | 0.672 nM | – | – | – | – | 44H-IgG4 S228P (antibody, V domains shown) VH: EVQLVESGGGLVQPGGSLRLSCAASGFSLSSYSMIWVRQAPGKGLEWVGIIYTGSSASYASWAKGRFTISRDNSKNTLYLQMNSLRAEDTAVYYCARENSHDTFDPWGQGTLVTVSS VL: DIQMTQSPSSLSASVGDRVTITCQSSQSVYTNYLSWYQQKPGKAPKLLIYAASTLASGVPSRFSGSGSGTDFTLTISSLQPEDFATYYCLGSYVSSGWYYAFGGGTKVEIK
6 | 0.572 nM | – | – | – | – | OSE-172 (antibody, from another filing, V domains shown) VH: EVQLVQSGAEVKKPGESLRISCKASGYSFTSYWVHWVRQMPGKGLEWMGNIDPSDSDTHYSPSFQGHVTLSVDKSISTAYLQLSSLKASDTAMYYCVRGGTGTLAYFAYWGQGTLVTVSS VL: DVVMTQSPLSLPVTLGQPASISCRSSQSLVHSYGNTYLYWFQQRPGQSPRLLIYRVSNRFSGVPDRFSGSGSGTDFTLKISRVEAEDVGVYYCFQGTHVPYTFGGGTKVEIKR
7 | 0.264 nM | – | – | – | – | 4E10-IgG4 S228P (antibody, V domains shown) VH: EVQLVESGGGLVQPGGSLRLSCAASGFSLSNYEMIWVRQAPGKGLEWVGIIYVSRSTHYASWAKGRFTISRDNSKNTLYLQMNSLRAEDTAVYYCGRYLASGGFNIWGQGTLVTVSS VL: DIQMTQSPSTLSASVGDRVTITCQASHNIYSNLAWYQQKPGKAPKLLIYDASKLASGVPSRFSGSGSGTEFTLTISSLQPDDFATYYCQSYYGNSYPFGGGTKVEIK

From patent US20230340112A1
